test: soluble on expression in E. coli; label from the status in PepcDB or PDB records

Sequence	soluble on expression in E. coli
MGSDKIHHHHHHMNKFNDIIDECDLSFSDWGKNYPRWSSLDAAWWKTFGGDNYLNKYKDGYIVFHREKIKEIARQYKIPSILLASVAHAEAGGMVDYFKYPTLFGRQVVHSYSGWPGKEKILPSPEKTSIGIIAMQIRVVAEIFGKNPSALRNAEATYISICLNKDNFNLTMVARHLYELINYDYPGTDTLNLTDEQFILAGARYNRGVQRSRSDLIRSINAEKDLIEVRDWTSYGRSMLNHREKITKLLYEVTTPPKNSDSN	not soluble
AHHHHHHGSIPIAKPLIGEEEINAVIEVLKSGMLAHGKEVEAFEREFASYIGVKHGIAVVNGTAALDIALKALKIKPGDEIITTPFTFIASANAILFQGAKPVFADIDPKTYNLDPDEVLEKINEKTKAIIVVHLYGQPADMKAFKEIAEDYKLYLIEDCAQAHGAEFEGQKVGTFGDIAAFSFYPTKNMTTGEGGMVLTNDDELARRARLIRNHGQTEKYLHEELGYNLRMTNIAAALGRVQLRKLDKWNEIRIENAELLTKGIKRIKGLTPPYVDKRVKHVFHQYVIRVEDDFPLTRDELREKLMEKGIGTAVHYPMPVHHQPLYQRLGYSKDCCPNAIEASKRVLSLPVHPAVSKEDINYIIRTLEELG	not soluble
MGSDKIHHHHHHMETRRDERIGQLLQALKRSDKLHLKEAATLLGVSEMTIRRDLNHKSAPVVLLGGYIVLEPRSASHYLLSDQKSRLVEEKRRAAQLAAGLVQAHQTVFIDCGTTTPWIIEAIDNDLPFTAVCYSLNTFLALQDKPHCRAILSGGEFHASNAIFKPLDFHETLNNICPDIAFYSAAGVHTSKGATCFNLEELPVKHWAMTMAQCHVLVVDHSKFGKVRPARMGELSRFDTIISDRRPDEAFVAYAKAQQITLMY	not soluble
MGHHHHHHSHMTDPSKLAVAVVCSSNMNRSMEAHNFLAKKGFNVRSYGTGERVKLPGMAFDKPNVYEFGTKYEDIYRDLESKDKEFYTQNGLLHMLDRNRRIKKCPERFQDTKEQFDIIVTVEERVYDLVVMHMESMESVDNRPVHVLNVDVVDNAEDALMGAFVITDMINMMAKSTDLDNDIDELIQEFEERRKRVILHSVLFY	soluble
MEIFEKIRSLRKNHNLSQEEIADKINLSVSGYRKIENGKSRINHKRLEQIAEALEVSPLDLIPNSWRHGSSVYQVGKNGFYGDSSRAIEIELLKQQIKQEQLIKAKDETIEDKNRLISRLEEMLKILNT	not soluble
MAHHHHHHMVVFINGLPVLTFELKNSLTKQTVADAVVQYQTDRNPAELLFQLGRCIAHVAVDDAEVRFCTHLTGKTSWFLPFNQGWNSGAGNPPNPNGLRTDYLWKQVLAKESLANIIENYAQVIEEEEEDTNGRKRRTRKQIFPRFHQLRTVRALMRRSRADGVGKRYLIQHSAGSGKSNTIAWLAHQLVELKTAADNTQAQFDSVIVITDRRALDAQIARTIKAYDHVASIYGHSESADELRTFLAPGQEDHRHHGAEVPVHPDELGGTL	not soluble
MVKTEPLQITTELPGRTSAYRIAEVRPQVSGIILKRNFKEGSDIEAGVSLYQIDPATYQATYDSAKGDLAKAQAAANIAQLTVNRYQKLLGTQYISKQEYDQALADAQQANAAVTAAKAAVETARINLAYTKVTSPISGRIGKSNVTEGALVQNGQATALATVQQLDPIYVDVTQSSNDMMRLKQELANGTLKQENGKAKVSLITSDGIKFPQDGTLEFSDVTVDQTTGSITLRAIFPNPDHTMMPGMFVRARLEEGLNPNAILVPQQGLEHHHHHH	soluble
MPITPPLNIISPKLYPNEQWNESEALGAITWLWYQSPTHRQVPIVEMMTYILPVLKNGQFALFCKGTQPIGYISWAYFDEVAQAHYLESDRHLRDNSDWNCGDNIWLIQWFAPLGHSHQMRSAVRQLFPSTTVRALYHKGSDKGLRILTFKT	not soluble
MNQVTTYLWETHLPGGSHWSGVVRRGTTLRLTDVSGGANAAVLFYNLEEKLERYNMADTLKTQHTFCLTKGHACHSDMGRIFCCITEDTAGWHDTVCGLSDAELIQQKYGTGRYQELRNDMYRNGLDGMLVELGKWGLGRRDVVSNINFFSKVTANSVGELQFHVSHSKAGDHVDLAFAMDTLVVLSAAPHPLDPAATYRPGAVNLAVFPSTPAVTGACAHIAENARGLENTRRLYAYGGVKLEHHHHHH	soluble
MSLATKVTLKDVAARAGVSYQTVSKVLNGEMQVAPETMERIQAAVQELGYRPNRIARNMRAGRSFMIGYSWTQTEPGQVNHILDQFLSSMVREAGAVNYFVLPFPFSEDRSQIDIYRDLIRSGNVDGFVLSSINYNDPRVQFLLKQKFPFVAFGRSNPDWDFAWVDIDGTAGTRQAVEYLIGRGHRRIAILAWPEDSRVGNDRLQGYLEAMQTAQLPIETGYILRGEGTFEVGRAMTLHLLDLSPERRPTAIMTLNDTMAIGAMAAARERGLTIGTDLAIIGFDDAPMVQYLFPPLSSVRQPIAEAGRKCIELLVAIVEGREPEQKHILLQPSLIIRASEGHHHHHH	soluble
MAKLGPAGYSPYPVAVTEGVLTPPPGKALMFNEIVDEEIAMREAAKAMLTRDNPTIFPGPQVLYAWNEEAKEKAKLVRKMAEVLGAKIIPMYDYRPKYPKIDPEKEINPNHPNLTIWHNKIKACIFIGVHCHYANVALKIIRAETDCFTIAMCSMAGHEDAMITLRDQHVEDLEKFIKIAEEVKKELGK	not soluble
MKSIIIAAPHSGSGKTTITVGIMECFRRRGLTVAPFKVGPDFIDPGYHRLVTGLPSANLDGWICPPEFVRASFAHHALNADMAIIEGVMGLFDGFGGIADEGSTAQVARLTGAPVILVVDARGLARSAAAILKGFAEFDPSVRVAGVIFNNVGSDSHERILREAVGQSLPELKVFGCIPRDDGLHIPARHLGLLTAEEHPLSGEFLDHLVEVIRDRVDLGLLWGAANPLGAPVPRAEPIPCQTLGGSVRLAVARDEAFCFVYEDNLCLLRRAGAEIVTFSPLRDERLPEDVAGVYLPGGYPEVFADALAANTGMKESLARAVNEGMPVYAECGGFIYLTRGVTDSAGEPESLHEFVGIFPVTTRMLPRRKALGYREVELAADTIIGPAGTLARGHEFHYSEMEEMPADVERAYRVRRGPVDLGMEGYRYRNCLASYVHLHFGSNPELAAAFVARCRSFVTRSRVLEHHHHHH	not soluble
MGSDKIHHHHHHMKLRELLSIGDLKKGKILTKEIGLDNEVDSAMVLEAIDIENWSRKNQLILTSFYALHDLPEKELENFFVKMRRIGISGLILKTDRFIKMIPEWFIELCFNYEIPLIKITQDISYEKILFTIYEPLLNYQSHVLRTYYDVRQRFTKLERHYPTVETIMQEFYDIIKLPFALKMLDKHLEISDGDLPHDAIVLSREKLKNSEFTKNDYSLLTLYSHANPKKQLALEVSIFNSYSTNCLLLVYLQDEKVKETDLVIIENAIDVLQEKFNTENLLKKERYTRLNNLADAILQNTPQNPDELNSLLREVQMQELDSYQAIAFSTKDTNTQLMKERIIALLRTLRVKSIFFDQLNYSAVLFNFNESDGKITKLQLSRLLAELLEENDTLTVAVSSLKSREGIKELLIECLDILRFNETFYNGPIVTLADIGVFKNFIREDQLENLDELIPRALYQLAENNYDLFETLYSFFQNNRNYKQTSEAMFLHSKTIRYRLNKVEQLLDIDLANPLQLLNYEIATYIIKMRRRALEKQSNTR	not soluble
MGSDKIHHHHHHMRVILAQPRGFCAGVVRAIEIVDRALQQHGAPVYVRHEIVHNRHVVDNLRQKGARFVEELDEVPQGAVAIFSAHGVAQTVERDAEARGLDVLDATCPLVTKVHVQGRQYVGAGRTLILIGHAGHPEVEGTVGQIPGKVLLVQSEAEVENLDLPLDTPLAYVTQTTLSVDDTRGIIDALLSRFTDIVGPDTRDICYATQNRQAAVRELSKQVDVLLVVGATNSSNSNRLREIGSESGVASYLVADGSEVKPEWFANVQTVGITAGASAPEEMVKNVIDALSALGPVDVTTMAGREEKVEFKLPSKLMQPLAAREV	not soluble
MSLQAAKEVCLWPLHEREPDTTWSRGPLVLLGDAGHPMRPHMAQGAAMAIEDAAVLVRCLRAYGAAAGAAYDHYQQTRAERVAQVQKVSSENSWMRTPTDPEWVFSYDALLAPEGHHHHHH	not soluble
VGVGYFDTIEIKTILSLLQIIDNPMQDIPLISVLKSPIFGFTPEDLIDIRVQSKDKIFYEVLKSTAEYDGFTDSQNENESEFIPSEECINKSKDFLIKLKEFKEKSMYMSTDEFIWYLYTRTGYYAYVGALPGGSQRQANLKVLFERAKQFEETSLKGIFNFVNFIEKLKKSSSDMGSAKT	soluble
MGSDKIHHHHHHMNIFQQLEHSKAPAAVRLVMVIDYIAKRDEASFTEICTDLSIPKSSVHHLLEVLVVTQLLRQRADGRYVLGLRLFELGGLVIKNIDLRKDTINFMHELVKETELTCHLGIMDGDNGFFLSKVESPKAIVKTSWEGKKIVFNRMSLGKVLVAWLPQERIESLIADCSFEYLTPRTITNKDDFLQHLKTVKEQGWAIDDGEDIEEICCMAAPIFNQNGDVIAAIGVNGMQSQYANGKKEKHLASLIKTSKAITAHINSRNIDIR	not soluble
MIIKIGTDRFWVKASNIERWAEILKSLPKKIPCSSKKDIARDYLGYKVDESGRIVNADEVYGLFGAEKDKDSLTIVGCNFIKEIEGGYELTEGAIELVERFKHNEEWEKVLGSQLLKYSIRIRTIAYAMLNGGYLYFEKGYMENFAKAYITLNDKKFYVFSSKPDEMNINSLMKENQSKILGDFWRKELDIGDGEEIEFRGVNKDYPSLGSMSTYLKIPMLLFDYLGWIVESEDGRYVLDKHKIKEDAGIDVYESLVNEADVDDIEILHKLIKEYSDARGFFPIGIVGSILKKKIDSENSMAEEQWIDHYFVTGINKGKFIIKDHEQGQPRHGRGLLGKKDYQLIKLEIRD	not soluble
MGSDKIHHHHHHMIQNTFNIAGGVARNPLVRLAAPITATISAGEHIAIVGPNGGGKSLFVDTLIGKYPLREGTLQYDFSPAATQTVYDNVKYIAFRDTYGAADANYYYQQRWNAHDQDEAPDVREMLGEIKDEQLKQELFELFRIEPMLDKKIILLSSGELRKFQLVKTLLTAPRVLIMDNPFIGLDAPTRELLFSLLDRLTKMSSVQIILVLSMLDDIPSFITHVIPVDKMTVYPKMEREAYLEAFRSRDAAVSFDELQQRIVNLPYDGNNYDSDEVVKLNKVSIRYDDRTILKDLDWTVRRGEKWALSGENGAGKSTLLSLVCADNPQSYACDISLFGRKRGTGESIWEIKKHIGYVSPEMHRAYLKNLPAIEIVASGLHDSIGLYKRPQPEQMAICEWWMDIFGIAELKDNPFLQLSSGEQRLALLARAFVKDPELLILDEPLHGLDTYNRRRVKKIIEAFCHRKDKTMIMVTHYESELPGTITDRIFLKRNR	not soluble
SSSSLVEAAAGLPEKGLMVCKWLGTGSAGYGGYKASEYFFPIDNEEFRENLEDWESTLQSWEKLKNYLEGMHKGPVGNQTRTH	soluble
MGSDKIHHHHHHMLLDTNIFSSFEDYSDISGKLNELSRRLNPKSILLKHPKSIEYLNTLDEDTKRILLSKLAFCDLLNDYPSPINDLEFNTNVGYLKGTNNDLENNLLYAVYTNSVTYLITENRMIHQKSTKLGLKDRVLYLNEALDFFKEFYSIQKRQILPQIKQRPITKVDVDDQIFDSLREEYPEFNNWYNEKAHLGRECWCYIKESGKLGAVLIFNGEDFDVIKTDPLLPEKRRFKICTFKVDQVGYKLGELLLKKAFDYCIDNSITETYLTHFAKSEFDYLVNLITEYGFIDIGTNENGENVFFKDLNPTPNQLMFCDYKDIFKKYYPLFYDGNRVKKLVVPIRPQYHEKLFTDYVKRTSITLNEYFGDFIIEGNTIKKAYISHSPIKNLKKGDILLFYRSEDHKELTSLGVLEEFKTNLTSPEEIINMVGKRTVYSSREIEEIVKKPASVMIFTMHLHLKSPIPLTVLKENNILKGPPQTITEITHGAYEKIRDLGGINDNLTIH	not soluble

Reference: the DeepSol protein solubility set
